# Experimental data: patent publication US20230002757A1 (ZHEJIANG NANOMAB TECHNOLOGY CENTER, published 2023)
# Residue numbers refer to the chain shown, from its start.
# T1: BCMA-Fc (human, UniProt Q02223 1-54)
# T1 construct: coating antigen, 1 ug/mL; also called Fc-conjugated human BCMA; not shown: Fc
# T1 sequence (looked up): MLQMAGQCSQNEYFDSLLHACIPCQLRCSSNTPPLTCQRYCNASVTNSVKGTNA
# T2: BCMA-His (human, UniProt Q02223 1-54)
# T2 construct: coating antigen, 1 ug/mL; also called His-conjugated human BCMA; not shown: His tag
# T2 sequence (looked up): T1 sequence (looked up)
# T3: BCMA on RPMI8226 cells (UniProt Q02223 1-184, limits assumed)
# T3 construct: whole, on cells
# T3 sequence (looked up): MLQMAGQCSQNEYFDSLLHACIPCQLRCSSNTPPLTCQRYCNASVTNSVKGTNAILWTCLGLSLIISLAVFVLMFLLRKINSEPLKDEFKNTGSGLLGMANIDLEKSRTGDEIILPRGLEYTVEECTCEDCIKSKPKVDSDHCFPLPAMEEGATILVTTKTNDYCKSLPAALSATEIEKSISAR
# B1: 504#SS13 (Fc fusion, not shown: a dimerising Fc or GST; small tags and cut ends)
# VHH: EVQVVESGGGSVQPGGSLRLSCAASGRGFTEHAMGWYRQSPGKEREFVAGISSGGSTYYADSVKGRFTVSRDSAGNTVALQMDSLKPEDTAVYYCSYKRGRYPDGVSTLEYWGQGTQVTVSS
# notes: VHH-FC construct from HEK293 cells
# B2: NBL507-A1L1-P1R2-1A1-(1)-PME207-SEQF_A01 (VHH)
# VHH: EVQLVESGGGLVQPGGSLRLSCAASGFTFRSSAMSWARQAPGKGLEWVSDIYPDGRTDYADSIKGRFTMSRDNAKNTVYLLMDSLKPEDTAVYHCQVGRYVSGVYYQPRGQGTQVTVSS
# notes: purified VHH; also called lAl
# B3: NBL507-A1L1-P1R2-1D2-(9)-PME207-SEQF_A02 (VHH)
# VHH: QVQLVESGGGLVQPGGSLRLSCAASGFTFSSSAMSWARQAPGKGLECVSDIYPDGTSSYADSMKGRFTISRDNTRNTMYLQMNVLKPEDTATYYCVIGRGGYAMGDRRLRGQGTQVTVSS
# notes: purified VHH
# B4: NBL507-A1L1-P1R2-1E2-(10)-PME207-SEQF_B02 (VHH)
# VHH: EVQLVESGGGLVQPGGSLRLSCAASGSISSIYAMGWYRQAPGKLRELVAAITTGGSTFYRDSVKGRFTISRDNVANTVYLQMNSLKPEDTAVYHCNGAPWGDIAPVAVSWGQGTQVTVSS
# notes: purified VHH
# B5: NBL507-A1L1-P1R2-1B6-(31)-PME207-SEQF_G04 (VHH)
# VHH: QVQLVESGGGLVQPGGSLRLSCAASGFTFSPSAMSWARQAPGKGLEWVSGIYSDGSTYYRDSVKGRFTISRDNARNMVYLQMNSLKPEDTAVYYCALGAMREGVYSDLLGQGTQVTVSS
# notes: purified VHH
# B6: NBL507-A1L1-P1R2-1B8-(44)-PME207-SEQF_D06 (VHH)
# VHH: QVQLVESGGGLVQPEGSLRLSCAASGSIFSIYAMGWYRQAPGKQRGLVAAITSGGDTFYADSVKGRFTISRDNARNTVYLQMNNLKSEDTAVYDCNGAPWGDHAPLVASWGQGTQVTVSS
# notes: purified VHH
# B7: NBL507-A2L1-P1R2-1C1-(273)-PME207-SEQF_E11 (VHH)
# VHH: QVQLVESGGGLVHPGGSLRLDCAVSERIASFNVMGWYRQAPGQQREVVATITSVGRTYYADSVKGRFTIAKDNDKNTYLQMNSLKPEDTAVYYCKAVIVGTYDTEYWGQGTLVTVSS
# notes: purified VHH
# B8: NBL507-A2L1-P1R2-1H1-(275)-PME207-SEQF_G11 (VHH)
# VHH: B7 VHH with D21A, V24A, A29L, A70F, D74G, N82S, I98T, T101D, Y102V, L112Q
# notes: purified VHH
# B9: NBL501#008 (VHH)
# VHH: QVQLVESGGGLVQAGGSLRLSCVASGIVFRLNAMGWFRQAPGRERELVATIASGGWAYYGDTMSGRVTISRDNDKNTLYLEMNSLKPEDSAMYYCSAGGARPHSWGQGTQVTVSS
# notes: tested as supernatant in ELISA
# B10: NBL501#002 (VHH)
# VHH: QVQLVESGGGLVQAGGSLRLSCAASISIRRINAMGWYRQAPGKERELVAVISSPNKTLYADSVKGRFTISKDNYTNTLYLQMNSLKPEDTAMYYCSAWRIGVDTTDYYGQGTQVTVSS
# notes: as for B9
# B11: NBL501#004 (VHH)
# VHH: EVQVVESGGGLVQAGGSLRLSCVPSGSISSIYAMGWYRQALGPERELVAAQTLGGGTYYANPVKGRFTIYRDNDKNTLYLQMNNLKPEDTAMYYCATPGEHWGSSDVTNWGQGTQVTVSS
# notes: as for B9
# B12: NBL501#009 (VHH)
# VHH: EVQVVESGGGLVQAGGSLRLSCVASGFTFSVAAMRWYRQAPGKQREWVASAFSDGNLHYEDFVKGRFTISRDDAKNTLYLQMDSLKPEDTAVYYCNAGTPSRAYWGQGTQVTVSS
# notes: as for B9
# B13: NBL501#006 (VHH)
# VHH: QVQLVESGGGLVQAGGSLRLSCAASGSADSIPAMGWYRQAPGKEREYLAAISSGTNTYYASSAKGRFAISRNNANNTLYLQMNSLKPEDTAMYYCATCSSYYYCSGPYVRSWGQGTQVTVSS
# notes: as for B9
# B14: NBL501#007 (VHH)
# VHH: QVQLVESGGGLVQPGGSLTLSCAASGFTFSSYYMSWVRQAPGKGPEWVSIISTGGASTVYTDSVKGRFTASRDNAKNTLYLQMNSLKPEDTALYYCVRGNSRSGLIPRAYWGQGTQVTVSS
# notes: as for B9
# B15: NBL501#010 (VHH)
# VHH: QVKLEESGGGLVQAGGSLRLSCVASGSIFSINAMGWYRRAPGKERELVASISSDGSIYYADSVKGRFTISRDNAKNTLYLQMNSLKPEDTAMYDCAALGVVNVGVRPTLEYIYWGQGTQVTVSS
# notes: as for B9
# B16: NBL501#011 (VHH)
# VHH: QVQLVESGGGLVQAGGSLRLSCAVFGNTGAIHAMAWYRQAPGKQREEVARISFGDGRTVYGDSVKGRFTISGDDAKNTMYLQMNILKAEDTAEYYCNAVFLGIGPTGRFEYEYWGQGTQVTVSS
# notes: as for B9
# B17: NBL501#003 (VHH)
# VHH: QVQLVESGGGLVQPGGSLRLSCAASGITLDYYAIGWFRQAPGKEREGVSCISSSGGSTNYADSVKGRFTMSRDNAKNTVYLQMNSLKPEDTAVYYCAADIHCSGYVLFSPSDFGNWGQGTQVTVSS
# notes: as for B9
# Biological target: T4, PD-1 protein (human, UniProt Q15116 25-167, limits assumed)
# T4 construct: also called human PD-1
# T4 sequence (Q15116 25-167 limits assumed): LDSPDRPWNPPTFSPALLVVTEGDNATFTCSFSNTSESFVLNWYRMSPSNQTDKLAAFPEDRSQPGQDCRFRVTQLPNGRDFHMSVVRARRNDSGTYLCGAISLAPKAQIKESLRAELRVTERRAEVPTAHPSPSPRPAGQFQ
# Assay: blocking ELISA, PD-1 coated, competitor biotin PD-L1
# Experimental: Each well of 96-well microtiter plates is coated with 2 μg/ml of PD-1 protein in PBS and blocked with 1% BSA. […]
# The intensity of the developed color is measured at 450 nm. Wells with no added PD-1 and no added VHH-FC are negative and positive controls, respectively.
Binder,"OD450 of PD-L1 bound, antibody at 0.15 µg/mL [OD450]","OD450 of PD-L1 bound, antibody at 0.61 µg/mL [OD450]","OD450 of PD-L1 bound, antibody at 2.42 µg/mL [OD450]","OD450 of PD-L1 bound, antibody at 9.75 µg/mL [OD450]"
B1,3.34,3.33,3.29,3.33

# Biological target: T4, PD-1 protein
# Assay: ELISA, PD-1 coated
# Experimental: 2 μg/ml of PD-1 protein is coated on 96-well plates overnight for ELISA binding assay. Recombinant VHH-FC proteins are added to the wells and allowed to stand for a period of time, then 1 μg/ml of HRP-conjugated anti-FC antibody is added as detection antibody and the assay reagents are added. The absorbance is read at 450 nm. Binding of nivolumab serves as a positive control and plates coated with BSA are used as the negative control group.
Binder,OD450 at 0.002 µg/mL [OD450],OD450 at 0.02 µg/mL [OD450],OD450 at 0.2 µg/mL [OD450],OD450 at 2 µg/mL [OD450]
B1,0.03,0.03,0.03,0.03

# Biological target: T5, human IgG
# T5 construct: ELISA coating control
# Assay: ELISA, human IgG coated 1 ug/mL
row,Binder,OD450 [OD450]
1,B2,0.03
2,B3,0.02
3,B4,0.03
4,B5,0.03
5,B6,0.01
6,B7,0.03
7,B8,0.04

# Biological target: T6, EGFR on 293T-EGFR cells (293T cells negative for BCMA expression) (UniProt P00533 25-1210, limits assumed)
# T6 construct: whole, on cells; negative control cells; that they carry EGFR is read from the label only
# Assay: flow cytometry
row,Binder,binding result
1,B2,no binding
2,B3,no binding
3,B4,no binding
4,B5,no binding
5,B6,no binding
6,B7,no binding
7,B8,no binding

# Biological target: T1, BCMA-Fc
# Assay: ELISA, BCMA-Fc coated 1 ug/mL
row,Binder,OD450 [OD450]
1,B2,2.47
2,B3,2.35
3,B4,2.53
4,B5,2.52
5,B6,2.47
6,B7,3.12
7,B8,3.3

# Biological target: T6, EGFR on 293T-EGFR cells (293T cells …)
# Assay: FACS on 293T-EGFR cells (BCMA negative)
row,Binder,MFI [MFI]
1,B2,230
2,B3,222
3,B4,227
4,B5,216
5,B6,219
6,B7,222
7,B8,222

# Biological target: T2, BCMA-His
# Assay: ELISA, BCMA-His coated 1 ug/mL
row,Binder,OD450 [OD450]
1,B2,2.37
2,B3,2.32
3,B4,2.37
4,B5,2.25
5,B6,2.27
6,B7,2.28
7,B8,2.11

# Biological target: T7, MSLN epitope domain 2 (UniProt Q13421 391-486, limits assumed)
# T7 construct: domain: domain 2; also called domain 2 of MSLN
# T7 sequence (Q13421 other isoform, or with tags, fused parts or gaps limits assumed): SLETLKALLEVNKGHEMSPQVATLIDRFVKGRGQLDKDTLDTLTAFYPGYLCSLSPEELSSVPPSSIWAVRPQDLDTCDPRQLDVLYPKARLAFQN
# Assay: ELISA, supernatant
row,Binder,binding result
1,B9,no binding
2,B10,no binding
3,B11,no binding

# Biological target: T8, MSLN epitope domain 1 (UniProt Q13421 296-390, limits assumed)
# T8 construct: domain: domain 1; also called domain 1 of MSLN
# T8 sequence (Q13421 296-390 limits assumed): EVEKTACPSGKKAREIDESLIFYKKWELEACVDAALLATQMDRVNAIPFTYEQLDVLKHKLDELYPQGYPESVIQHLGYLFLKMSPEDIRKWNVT
# Assay: ELISA, supernatant
row,Binder,binding result
1,B12,no binding

# Biological target: T9, MSLN epitope domain 3 (UniProt Q13421 487-598, limits assumed)
# T9 construct: domain: domain 3; also called domain 3 of MSLN
# T9 sequence (Q13421 495-606 limits assumed): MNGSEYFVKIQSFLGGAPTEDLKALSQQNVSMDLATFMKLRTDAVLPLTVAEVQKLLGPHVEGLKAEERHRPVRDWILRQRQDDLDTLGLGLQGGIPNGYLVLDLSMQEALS
# Assay: ELISA, supernatant
row,Binder,binding result
1,B9,no binding
2,B12,no binding
3,B10,no binding
4,B11,no binding

# Biological target: T10, mesothelin (MSLN), full length (UniProt Q13421 296-598, limits assumed)
# T10 construct: coating antigen of the ELISA; construct not described
# T10 sequence (Q13421 other isoform, or with tags, fused parts or gaps limits assumed): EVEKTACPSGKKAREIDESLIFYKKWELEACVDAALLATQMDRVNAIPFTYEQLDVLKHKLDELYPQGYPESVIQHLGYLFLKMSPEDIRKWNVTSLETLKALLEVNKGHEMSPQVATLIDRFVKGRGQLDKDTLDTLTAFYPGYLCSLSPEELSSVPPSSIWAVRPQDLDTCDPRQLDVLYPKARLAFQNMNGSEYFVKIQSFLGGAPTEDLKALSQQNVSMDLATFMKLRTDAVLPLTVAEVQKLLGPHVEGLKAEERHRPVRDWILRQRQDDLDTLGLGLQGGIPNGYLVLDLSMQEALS
# Assay: ELISA, supernatant
row,Binder,binding result
1,B13,no binding
2,B14,no binding
3,B15,no binding
4,B16,no binding
5,B17,no binding

# Biological target: T11, Anti-His
# T11 construct: ELISA coating control
# Assay: ELISA, Anti-His coated 1 ug/mL
row,Binder,OD450 [OD450]
1,B2,2.1
2,B3,0.57
3,B4,2.44
4,B5,1.96
5,B6,1.79
6,B7,0.71
7,B8,0.98

# Biological target: T3, BCMA on RPMI8226 cells
# Assay: FACS on RPMI8226 cells
row,Binder,MFI [MFI]
1,B2,2420
2,B3,1260
3,B4,2550
4,B5,864
5,B6,1810
6,B7,764
7,B8,532
